Source: article PMC3435407 (PLoS ONE, 2012)
Non-standard residues stand in square brackets, D forms with d. No end group written: not given here. *: point of attachment. Biotin = O=C1N[C@H]2[C@H](CS[C@H]2CCCCC(=O)*)N1; Bpa = N[C@@H](Cc1ccc(C(=O)c2ccccc2)cc1)C(=O)O

Legend:
[1] = biological target: T1, αAG98R-crystallin (human αA-crystallin G98R mutant) (human, UniProt P02489 1-173, G98R); assay: cross-linking; 200 µg biotinyl-Bpa peptide with 200 µg αAG98R, pH 7.2, 37°C, 1 hr; free peptide removed on a 10 kDa filter; photolysis at 365 nm, 30 min, 4°C; desalted on C18; MALDI-TOF/TOF mass spectrometry; conditions: both partners purified
T1 sequence (P02489 whole entry G98R): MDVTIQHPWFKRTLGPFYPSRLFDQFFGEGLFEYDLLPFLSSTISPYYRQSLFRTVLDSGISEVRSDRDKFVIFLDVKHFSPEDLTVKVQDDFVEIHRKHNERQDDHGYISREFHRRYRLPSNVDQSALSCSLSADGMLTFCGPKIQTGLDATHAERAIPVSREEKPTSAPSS

[2] = biological target: T1, αAG98R-crystallin (human αA-crystallin …); assay: cross-linking; 200 µg biotinyl-Bpa peptide with 200 µg αAG98R, pH 7.2, 37°C, 1 hr; free peptide removed on a 10 kDa filter; photolysis at 365 nm, 30 min, 4°C; SDS-PAGE and western blot for biotin (avidin-horseradish peroxidase); conditions: both partners purified

B1: Biotin-DFVIFLDVKH(Bpa)SPEDLTVK (biotinyl αA-mini-chaperone-Bpa peptide) (peptide)
peptide: Biotin-DFVIFLDVKH[Bpa]SPEDLTVK
For B1, the “stoichiometry N” value [1] was 1 peptide per αAG98R monomer and the “stoichiometry N” value [2] was 1 peptide per αAG98R subunit.
